Assay results published in patent publication EP3717020B1.

Biological target: endogenous RAS proteins in HeLa cells
Experiment: cell-based or functional assay

Row | Substance | EC50 of loss of RAS proteins in HeLa cells (anti-RAS immunoblot) | potency of RAS loss in HeLa cells against RRSP-dta-dtB | EC50 of loss of total RAS proteins in HeLa cells (24 h, anti-RAS immunoblot)
1 | RRSP-APD-Δdta-dtB (enzyme) | 1 pM | 300 fold | –
2 | RRSP-dta-dtB (enzyme) | – | – | 250 pM
3 | RRSP-Δdta-dtB (enzyme) | 1 pM | 300 fold | –
